# In patent US20250161440A1 (ABCENTRA, published 2025):
# B1: orticumab (antibody, human IgG1, lambda, V domains shown)
# VH: EVQLLESGGGLVQPGGSLRLSCAASGFTFSNAWMSWVRQAPGKGLEWVSSISVGGHRTYYADSVKGRSTISRDNSKNTLYLQMNSLRAEDTAVYYCARIRVGPSGGAFDYWGQGTLVTVSS
# VL: QSVLTQPPSASGTPGQRVTISCSGSNTNIGKNYVSWYQQLPGTAPKLLIYANSNRPSGVPDRFSGSKSGTSASLAISGLRSEDEADYYCASWDASLNGWVFGGGTKLTVLG
# Biological target: oxidized LDL (oxLDL) (UniProt P04114 28-4563, limits assumed, oxidized); the kind of oxidation used in the in vitro assay is not stated (the filing says in general that oxidized LDL may carry malondialdehyde groups on lysines and histidines, or be oxidized by …)
# Sequence (P04114 28-4563 limits assumed): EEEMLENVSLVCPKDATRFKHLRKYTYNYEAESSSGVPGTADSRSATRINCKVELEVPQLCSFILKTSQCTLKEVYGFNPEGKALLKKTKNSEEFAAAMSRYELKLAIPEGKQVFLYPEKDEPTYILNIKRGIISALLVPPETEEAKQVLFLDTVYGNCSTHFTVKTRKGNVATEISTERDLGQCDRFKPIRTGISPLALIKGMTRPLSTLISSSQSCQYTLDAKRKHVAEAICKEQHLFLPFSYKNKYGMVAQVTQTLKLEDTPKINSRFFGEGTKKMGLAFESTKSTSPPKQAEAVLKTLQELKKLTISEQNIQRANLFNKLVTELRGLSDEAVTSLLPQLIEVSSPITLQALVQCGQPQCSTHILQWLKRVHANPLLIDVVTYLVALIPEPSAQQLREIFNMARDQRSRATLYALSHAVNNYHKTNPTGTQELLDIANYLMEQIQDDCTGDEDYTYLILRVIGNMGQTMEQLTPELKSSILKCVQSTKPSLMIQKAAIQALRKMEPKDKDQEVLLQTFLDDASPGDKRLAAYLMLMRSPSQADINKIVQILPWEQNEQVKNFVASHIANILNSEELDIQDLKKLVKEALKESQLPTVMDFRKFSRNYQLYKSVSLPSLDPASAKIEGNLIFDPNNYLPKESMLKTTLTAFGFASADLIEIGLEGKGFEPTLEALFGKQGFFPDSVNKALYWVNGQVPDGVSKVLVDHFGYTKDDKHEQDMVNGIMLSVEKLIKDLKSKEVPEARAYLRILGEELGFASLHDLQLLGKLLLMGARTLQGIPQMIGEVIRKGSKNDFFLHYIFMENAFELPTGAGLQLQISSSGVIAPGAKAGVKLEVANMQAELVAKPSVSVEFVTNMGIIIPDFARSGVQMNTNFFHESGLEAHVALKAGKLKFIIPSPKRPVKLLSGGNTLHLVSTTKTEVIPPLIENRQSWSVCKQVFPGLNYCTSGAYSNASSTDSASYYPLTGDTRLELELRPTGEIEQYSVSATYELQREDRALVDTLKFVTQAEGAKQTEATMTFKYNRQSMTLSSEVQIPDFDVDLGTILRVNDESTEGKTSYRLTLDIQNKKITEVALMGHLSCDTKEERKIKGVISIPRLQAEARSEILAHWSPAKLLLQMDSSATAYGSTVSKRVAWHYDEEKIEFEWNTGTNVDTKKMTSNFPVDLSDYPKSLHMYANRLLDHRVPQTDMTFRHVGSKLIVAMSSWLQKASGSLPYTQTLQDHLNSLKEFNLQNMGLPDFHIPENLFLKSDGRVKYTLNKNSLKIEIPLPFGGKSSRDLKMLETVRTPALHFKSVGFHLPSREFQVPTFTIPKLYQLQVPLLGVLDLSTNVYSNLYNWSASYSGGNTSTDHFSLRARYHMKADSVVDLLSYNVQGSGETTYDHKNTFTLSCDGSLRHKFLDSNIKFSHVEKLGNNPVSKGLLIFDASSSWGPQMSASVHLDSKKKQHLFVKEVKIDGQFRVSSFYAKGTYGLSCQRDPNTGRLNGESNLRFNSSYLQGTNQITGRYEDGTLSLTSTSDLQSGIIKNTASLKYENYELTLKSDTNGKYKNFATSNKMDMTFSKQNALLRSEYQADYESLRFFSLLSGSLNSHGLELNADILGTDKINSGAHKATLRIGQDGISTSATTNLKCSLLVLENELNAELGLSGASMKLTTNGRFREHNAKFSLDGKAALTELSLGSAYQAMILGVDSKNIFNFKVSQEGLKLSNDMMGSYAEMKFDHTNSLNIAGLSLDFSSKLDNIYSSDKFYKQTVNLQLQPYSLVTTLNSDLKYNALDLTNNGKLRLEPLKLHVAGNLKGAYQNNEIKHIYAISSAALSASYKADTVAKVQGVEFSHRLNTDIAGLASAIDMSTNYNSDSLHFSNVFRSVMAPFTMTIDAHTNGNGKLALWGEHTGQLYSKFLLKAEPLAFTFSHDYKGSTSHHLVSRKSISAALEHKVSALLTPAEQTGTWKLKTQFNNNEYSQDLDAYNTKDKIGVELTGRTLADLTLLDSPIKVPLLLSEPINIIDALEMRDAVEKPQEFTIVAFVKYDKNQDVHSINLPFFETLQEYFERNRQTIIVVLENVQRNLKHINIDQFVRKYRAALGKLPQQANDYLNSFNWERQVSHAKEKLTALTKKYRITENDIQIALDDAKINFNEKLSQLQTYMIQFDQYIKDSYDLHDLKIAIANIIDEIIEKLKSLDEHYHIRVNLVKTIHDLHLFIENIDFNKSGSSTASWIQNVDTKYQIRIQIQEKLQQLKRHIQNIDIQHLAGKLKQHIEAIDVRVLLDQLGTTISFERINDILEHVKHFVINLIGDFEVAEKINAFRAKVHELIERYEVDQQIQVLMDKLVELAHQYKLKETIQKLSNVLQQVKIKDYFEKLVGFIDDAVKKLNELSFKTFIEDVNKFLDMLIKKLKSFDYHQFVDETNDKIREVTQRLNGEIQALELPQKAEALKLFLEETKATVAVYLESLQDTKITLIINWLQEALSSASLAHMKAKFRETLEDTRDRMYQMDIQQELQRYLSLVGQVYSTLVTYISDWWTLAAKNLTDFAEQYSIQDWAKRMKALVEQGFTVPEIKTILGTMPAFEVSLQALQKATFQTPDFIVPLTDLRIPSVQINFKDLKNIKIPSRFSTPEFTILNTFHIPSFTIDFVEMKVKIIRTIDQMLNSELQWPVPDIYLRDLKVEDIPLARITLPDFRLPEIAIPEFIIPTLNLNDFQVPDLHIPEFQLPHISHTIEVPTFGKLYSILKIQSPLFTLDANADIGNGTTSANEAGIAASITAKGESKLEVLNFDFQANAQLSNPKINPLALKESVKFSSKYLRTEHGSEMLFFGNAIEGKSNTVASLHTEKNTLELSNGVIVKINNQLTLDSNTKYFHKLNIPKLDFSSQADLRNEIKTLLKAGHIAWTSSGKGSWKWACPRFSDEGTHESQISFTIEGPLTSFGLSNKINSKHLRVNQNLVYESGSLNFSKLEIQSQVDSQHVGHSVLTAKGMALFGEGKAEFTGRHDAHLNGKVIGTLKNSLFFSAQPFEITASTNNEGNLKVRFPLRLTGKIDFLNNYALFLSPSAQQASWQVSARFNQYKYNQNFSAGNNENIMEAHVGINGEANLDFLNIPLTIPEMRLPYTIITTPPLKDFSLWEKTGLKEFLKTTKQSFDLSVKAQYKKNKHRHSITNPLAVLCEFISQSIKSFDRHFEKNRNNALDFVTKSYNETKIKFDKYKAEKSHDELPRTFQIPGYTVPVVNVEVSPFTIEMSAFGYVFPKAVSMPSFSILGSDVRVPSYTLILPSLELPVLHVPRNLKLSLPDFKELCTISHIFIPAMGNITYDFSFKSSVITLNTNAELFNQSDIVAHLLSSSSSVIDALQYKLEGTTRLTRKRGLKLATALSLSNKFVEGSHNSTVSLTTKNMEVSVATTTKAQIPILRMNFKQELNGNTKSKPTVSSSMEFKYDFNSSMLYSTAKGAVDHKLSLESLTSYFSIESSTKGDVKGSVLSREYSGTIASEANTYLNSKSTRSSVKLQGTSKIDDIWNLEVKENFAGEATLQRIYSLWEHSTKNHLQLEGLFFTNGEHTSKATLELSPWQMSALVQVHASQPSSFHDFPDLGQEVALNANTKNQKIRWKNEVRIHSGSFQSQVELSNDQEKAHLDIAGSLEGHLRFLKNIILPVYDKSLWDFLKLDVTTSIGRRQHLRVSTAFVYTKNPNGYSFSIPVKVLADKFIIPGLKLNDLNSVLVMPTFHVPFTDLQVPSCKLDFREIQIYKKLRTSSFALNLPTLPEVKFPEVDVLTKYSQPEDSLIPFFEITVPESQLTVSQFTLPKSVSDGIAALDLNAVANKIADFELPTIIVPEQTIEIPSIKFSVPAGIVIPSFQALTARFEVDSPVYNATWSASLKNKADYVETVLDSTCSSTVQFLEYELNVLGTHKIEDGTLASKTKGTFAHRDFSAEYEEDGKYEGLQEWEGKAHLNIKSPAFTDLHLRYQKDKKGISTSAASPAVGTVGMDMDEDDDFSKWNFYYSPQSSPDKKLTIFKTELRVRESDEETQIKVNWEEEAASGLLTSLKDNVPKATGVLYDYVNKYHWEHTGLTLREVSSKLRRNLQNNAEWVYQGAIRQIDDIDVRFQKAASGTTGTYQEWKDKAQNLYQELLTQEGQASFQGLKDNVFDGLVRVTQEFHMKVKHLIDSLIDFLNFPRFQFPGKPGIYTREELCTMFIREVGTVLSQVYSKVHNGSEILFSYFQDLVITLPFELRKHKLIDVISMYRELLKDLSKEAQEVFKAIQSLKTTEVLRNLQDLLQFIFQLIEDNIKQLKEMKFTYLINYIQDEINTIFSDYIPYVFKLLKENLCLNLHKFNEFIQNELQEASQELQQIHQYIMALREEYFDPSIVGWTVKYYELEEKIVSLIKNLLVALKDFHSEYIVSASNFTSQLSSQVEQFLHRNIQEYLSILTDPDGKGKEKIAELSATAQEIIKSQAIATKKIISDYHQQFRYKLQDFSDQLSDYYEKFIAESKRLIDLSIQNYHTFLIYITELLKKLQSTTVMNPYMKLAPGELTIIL
# Assay: cell-based or functional assay
binder,measurement,value
B1,IC50 for MCP-1 inhibition,~10 nM
